Measured values reported in patent US20240263180, “SMALL COMPLEMENTARY NUCLEIC ACIDS, COMPOSITIONS CONTAINING THE SAME, AND METHODS FOR USE AS ANTIVIRALS” (HOWARD UNIVERSITY, published 2024).

What was measured:
U2AF65 [1] = biological target: T1, U2AF65 (UniProt P26368 P26368:2-475); assay: EMSA; native PAGE; settings: label: radiolabel
U2AF65 [2] = biological target: T1, U2AF65; assay: EMSA; settings: label: radiolabel

T1 sequence (P26368 2-475, one chain of several): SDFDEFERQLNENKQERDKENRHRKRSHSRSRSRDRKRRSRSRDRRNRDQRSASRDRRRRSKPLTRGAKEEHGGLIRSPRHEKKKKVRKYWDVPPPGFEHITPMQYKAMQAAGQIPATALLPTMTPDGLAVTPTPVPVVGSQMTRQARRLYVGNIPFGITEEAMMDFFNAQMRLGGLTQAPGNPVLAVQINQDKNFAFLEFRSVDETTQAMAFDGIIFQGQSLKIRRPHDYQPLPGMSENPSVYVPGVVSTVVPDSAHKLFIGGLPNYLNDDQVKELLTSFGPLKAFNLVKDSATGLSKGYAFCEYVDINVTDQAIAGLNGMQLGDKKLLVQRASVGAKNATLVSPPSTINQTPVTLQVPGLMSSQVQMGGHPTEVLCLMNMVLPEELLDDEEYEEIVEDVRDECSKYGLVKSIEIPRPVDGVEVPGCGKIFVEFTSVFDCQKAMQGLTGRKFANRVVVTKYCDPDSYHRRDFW

Binder	binding result (U2AF65 [1])	binding result (U2AF65 [2])
CACGCCUGUGAAACCGUACUAAGUCUCCCGUGUCUUCUUAUCACCAUCAG (ssRNA) [wt PyA+PyB RNA probe (HCMV MIE intron 4)]	binds	
CACGCCUGUGAAACCGUACUAAGUCAGCCGUGUCAAGUUAUCACCAUCAG (ssRNA) [dPyAB probe]		no binding
CACGCCUGUGAAACCGUACUAAGUCUCCCGUGUCAAGUUAUCACCAUCAG (ssRNA) [dPyB probe]		no binding
